Measured values from article PMC5715260, “Increasing the length and hydrophobicity of the C‐terminal sequence of transthyretin strengthens its binding affinity to retinol binding protein” (FEBS Open Bio, 2017).

Target: Human retinol binding protein (RBP) (human, UniProt P02753 19-201)
Assay: native gel or EMSA; purified TTR (0.5 uM) incubated with human RBP (0-4 uM) at 4 °C for 2 h; free and RBP-bound TTR separated by native PAGE (10%), western blot with anti-TTR and ECL; Kd by Scatchard analysis assuming a 1:2 TTR:RBP complex; low TTR/RBP molar ratio
Details: both partners purified

B1: Crocodylus porosus transthyretin (TTR), recombinant (natural protein)
chain: not shown
notes: Transthyretin, Crocodylus porosus, recombinant wild type; The discussion says all TTRs were secreted as a tetramer; also called C. porosus TTR; crocTTR; source: Pichia pastoris, secreted into the culture medium, purified (preparative native PAGE)
- Kd: 1420 nM
